In patent US20250205324A1, “ANTIGENIC PEPTIDES FOR PREVENTION AND TREATMENT OF CANCER” (ENTEROME S.A., priority 2022, published 2025):
Read-outs that look alike come from different tables or passages of the source. Where no end group is shown, it is not given here.

How the values were obtained:
HLA-A*0201 = biological target: T1, HLA-A*0201 (Homo sapiens, UniProt P04439, D140Y/D185E/D98H/E176V/E277Q/G131W/G231S/I119V/I121R/I166T/I218V/L300P/L318F/N151K/N90K/P208A/P217A/Q86G/Q94H/R138H/R169H/T345S); assay: Affinity of the peptide to T2 cell line (HLA-A*0201 binding, FACS with anti-HLA-A2 antibody); conditions: T2 cells
T1 construct: human tumoral cell T2 which expresses the HLA-A*0201 molecule; endogenous in cells; host or cells: T2 cells (human, TAP1/2 negative)
Procedure: T2 cells (5·10^4 cells per well) are incubated with decreasing concentrations of peptides from 100 μM to 0.1 μM (4 points: 100 μM, 10 μM, 1 μM, 0.1 μM) in serum-free medium (TexMacs) supplemented with 100 ng/μl of 2 Microglobulin at 37° C. for 16 hours.
The analysis is achieved by FACS (Macsquant analyzer 10 or a Macsquant analyzer 16-Miltenyi).

[1] = tested on: T2 cell lines loaded with bacterial peptide or human counterpart peptide; assay: Cytotoxic assay of peptide-specific CD8+ T cells against peptide-loaded T2 cells; assay type: cell-based
Source text: CD8+ T cells expanded per above were used to perform cytotoxic assays in presence of different ratios of target and effector cells to assess their cytotoxic capacity, using flow cytometry readout. Target cells were T2 cell lines loaded with bacterial peptide or human counterpart peptide. As a negative control T2 cells unloaded and T2 cells loaded with irrelevant peptide were employed.

[2] = biological target: T2, HLA-A*0201 molecule expressed on human T2 cells (human); assay: T2 cell HLA-A*0201 binding assay, anti-HLA-A2-PE flow cytometry
T2 construct: surface HLA-A2 detected with anti-HLA-A2-PE (clone REA517); also called HLA-A2
Procedure: T2 cells (5·10⁴ cells per well) are incubated with decreasing concentrations of peptides from 100 μM to 0.1 μM (4 points: 100 μM, 10 μM, 1 μM, 0.1 μM) in serum-free medium (TexMacs) supplemented with 100 ng/μl of 2 Microglobulin at 37° C. for 16 hours. Cells are then washed two times and marked with the anti-HLA-A2 antibody coupled to PE (clone REA517, Miltenyi).
For each peptide concentration, the geometric mean of the labelling associated with the peptide of interest is subtracted from background noise and reported as a percentage of the geometric mean of the HLA-A*0202 labelling obtained for the reference peptide HIV pol 589-597 at a concentration of 100 μM.

[3] = T cell clones expanded in vitro, flow cytometry readout (FIG. 18)

AINPELLQL (listed as Homo sapiens) [KIF2C-H1]
Concentration of peptide that induces 20% of HLA-A2 expression (HLA-A*0201): 22.55 µM

ALNPELLAL [KIF2C-B1, ALNPELLAL]
cytotoxic capacity of peptide-specific T cells against T2 cells loaded with bacterial or human peptides [1]: have the ability to kill T2 cells loaded with bacterial or human peptides | cytotoxic capacity of peptide-specific human T cell clones against T2 cells loaded with the bacteria peptide [1]: have the capacity to kill T2 cells | cytotoxic capacity of peptide-specific human T cell clones against T2 cells loaded with the human peptide [1]: able to kill T2 cells loaded with the human

ALYDVRTIL (listed as Homo sapiens) [UBE2C-H1]
Concentration of peptide that induces 20% of HLA-A2 expression (HLA-A*0201): 14.98 µM

ALYDVRTILL (listed as Homo sapiens) [UBEC2-H11]
Concentration of peptide that induces 20% of HLA-A2 expression (HLA-A*0201): 14.87 µM

AQIGIVAVV (listed as Homo sapiens) [OR51E2-H1]
Concentration of peptide that induces 20% of HLA-A2 expression (HLA-A*0201): 5.68 µM

AVIGIVAAV [OR51E2-B1]
Concentration of peptide that induces 20% of HLA-A2 expression (HLA-A*0201): 0.7 µM

FLYDVRTYL [UBE2C-B1]
cytotoxic capacity of peptide-specific human T cell clones against T2 cells loaded with the bacteria peptide [1, 3]: have the capacity to kill T2 cells | cytotoxic capacity of peptide-specific human T cell clones against T2 cells loaded with the human peptide [1, 3]: able to kill T2 cells loaded with the human | cytotoxic capacity of peptide-specific T cells against T2 cells loaded with bacterial or human peptides ([1]; legend of FIG. 18): have the ability to kill T2 cells loaded with bacterial or human peptides

ILLSIQSLL (listed as Homo sapiens) [UBE2C-H2]
Concentration of peptide that induces 20% of HLA-A2 expression (HLA-A*0201): 3.27 µM

IVWSDVTYV [MMP11-B1]
Concentration of peptide that induces 20% of HLA-A2 expression (HLA-A*0201): 0.08 µM

KILDTVHSC (listed as Homo sapiens) [ANKRD30A-H2]
Concentration of peptide that induces 20% of HLA-A2 expression (HLA-A*0201): 25.32 µM

KVWSDVTPL (listed as Homo sapiens) [MMP11-H1]
Concentration of peptide that induces 20% of HLA-A2 expression (HLA-A*0201): 0.65 µM

LILDTVHSL [ANKRD30A-B2]
Concentration of peptide that induces 20% of HLA-A2 expression (HLA-A*0201): 1.13 µM

LVIGIILAV (listed as Homo sapiens) [CDH17-H1]
Concentration of peptide that induces 20% of HLA-A2 expression (HLA-A*0201): 14.06 µM

QMNPELLTL [KIF2C-B11]
Concentration of peptide that induces 20% of HLA-A2 expression (HLA-A*0201): 0.909 µM

RLQQELMTL (listed as Homo sapiens) [UBE2C-H3]
Concentration of peptide that induces 20% of HLA-A2 expression (HLA-A*0201): 1.06 µM

SLDQKLFQL (listed as Homo sapiens) [ANKRD30A-H3]
Concentration of peptide that induces 20% of HLA-A2 expression (HLA-A*0201): 0.32 µM

SLLSIQSYV [UBE2C-B2]
Concentration of peptide that induces 20% of HLA-A2 expression (HLA-A*0201): 0.22 µM

SLPDRILTV [CDC20-B1]
cytotoxic capacity of peptide-specific T cells against T2 cells loaded with bacterial or human peptides [1]: have the ability to kill T2 cells loaded with bacterial or human peptides | cytotoxic capacity of peptide-specific human T cell clones against T2 cells loaded with the bacteria peptide [1]: have the capacity to kill T2 cells | cytotoxic capacity of peptide-specific human T cell clones against T2 cells loaded with the human peptide [1]: able to kill T2 cells loaded with the human

TLDQKLFMV [ANKRD30A-B3]
Concentration of peptide that induces 20% of HLA-A2 expression (HLA-A*0201): 0.14 µM

VLNPELLML [KIF2C-B13]
Concentration of peptide that induces 20% of HLA-A2 expression (HLA-A*0201): 0.189 µM

VMNPELLLL [KIF2C-B12]
Concentration of peptide that induces 20% of HLA-A2 expression (HLA-A*0201): 0.258 µM

YLILEYAPL (listed as Homo sapiens) [AURKA-H1]
Concentration of peptide that induces 20% of HLA-A2 expression (HLA-A*0201): 12.2 µM

YLYDVRTAL [UBE2C-B11, b339 prints …]
Concentration of peptide that induces 20% of HLA-A2 expression (HLA-A*0201): 0.87 µM

B1: AURKA-H1 (peptide)
peptide: YLILEYAPL
concentration of peptide that induces 20% of HLA-A2 expression [2]: 12.2 µM | in vitro binding affinity (relative affinity, normalized against HIV-pol) [2]: 22.8 ratio to HIV pol reference peptide | mean relative fluorescence intensity at 0.1 µM peptide [2]: 0 % of HIV pol reference peptide | mean relative fluorescence intensity at 1 µM peptide [2]: 0 % of HIV pol reference peptide | mean relative fluorescence intensity at 10 µM peptide [2]: 13.1 % of HIV pol reference peptide | mean relative fluorescence intensity at 100 µM peptide [2]: 164 % of HIV pol reference peptide

B2: CDH17-B1 (peptide)
peptide: KIIGIILAV
notes: also called ENT176_B1; ENT_176-B1
concentration of peptide that induces 20% of HLA-A2 expression [2]: 0.2 µM

B3: ANKRD30A-H3 (peptide)
peptide: SLDQKLFQL
concentration of peptide that induces 20% of HLA-A2 expression [2]: 0.32 µM | in vitro binding affinity (relative affinity, normalized against HIV-pol) [2]: 0.4 ratio to HIV pol reference peptide | mean relative fluorescence intensity at 0.1 µM peptide [2]: 5.9 % of HIV pol reference peptide | mean relative fluorescence intensity at 1 µM peptide [2]: 41.9 % of HIV pol reference peptide | mean relative fluorescence intensity at 10 µM peptide [2]: 99.1 % of HIV pol reference peptide | mean relative fluorescence intensity at 100 µM peptide [2]: 97.1 % of HIV pol reference peptide

B4: CEACAM5-B1 (peptide)
peptide: YLSGANLFV
notes: also called CEACAM-B1; ENT188_B1
concentration of peptide that induces 20% of HLA-A2 expression [2]: 0.5 µM | in vitro binding affinity (relative affinity, normalized against HIV-pol) [2]: 0.5 ratio to HIV pol reference peptide | mean relative fluorescence intensity at 0.1 µM peptide [2]: 7.7 % of HIV pol reference peptide | mean relative fluorescence intensity at 1 µM peptide [2]: 30.8 % of HIV pol reference peptide | mean relative fluorescence intensity at 10 µM peptide [2]: 69.2 % of HIV pol reference peptide | mean relative fluorescence intensity at 100 µM peptide [2]: 76 % of HIV pol reference peptide

B5: CDH17-H1 (peptide)
peptide: LVIGIILAV
notes: also called ENT176-H
concentration of peptide that induces 20% of HLA-A2 expression [2]: 14.1 µM | in vitro binding affinity (relative affinity, normalized against HIV-pol) [2]: 14.9 ratio to HIV pol reference peptide | mean relative fluorescence intensity at 0.1 µM peptide [2]: 0.5 % of HIV pol reference peptide | mean relative fluorescence intensity at 1 µM peptide [2]: 3.7 % of HIV pol reference peptide | mean relative fluorescence intensity at 10 µM peptide [2]: 17.6 % of HIV pol reference peptide

B6: AURKA-B1 (peptide)
peptide: YLILEYATV
notes: also called ENT199_B1
concentration of peptide that induces 20% of HLA-A2 expression [2]: 1.16 µM
